Measurements: patent US20070105162A1, “Monovalent avidin and streptavidin compositions” (Massachusetts Institute of Technology, priority 2005, published 2007)

Columns and labels:
[1] = system: biotinylated AP-CFP-TM on HeLa cells; assay: Staining of biotinylated AP-CFP-TM on HeLa with Alexa Fluor 568-conjugated streptavidins; assay type: cell-based; details: Alexa Fluor 568 conjugate 10 μg/mL, 10 min at 4° C.
Description: Enzymatic biotinylation and imaging of HeLa transfectants were performed as previously described (Howarth, M. et al., Proc. Natl. Acad. Sci. USA 102: 7583-7588, 2005), except instead of 10 μM biotin and 1 mM ATP, we added 10 μM biotin-AMP (synthesized according to Coleman and Huang; Coleman, T. M. and Huang, F. Chem. Biol. 9: 1227-1236, 2002) to give equivalent biotinylation but minimizing the risk of purinoreceptor activation by ATP (Rathbone, M. P. et al., Prog. Neurobiol. 59: 663-690, 1999). […] Biotinylation of neurons was performed at day in vitro (DIV) 8 in Hanks' Balanced Salt Solution (HBSS) (Invitrogen) with 0.2 μM biotin ligase and 10 μM biotin-AMP for 5 min at 37° C. […] Neurons were washed with NeuroBasal media (Invitrogen) supplemented with B-27 (Invitrogen), 50 U/mL penicillin, 50 μg/mL streptomycin, and 0.2 mM L-glutamine and chased in the same medium for 0 or 2 hr at 37° C. Cells were then fixed in −20° C. methanol. […]
Images of HeLa cells were collected on a Zeiss Axiovert 200M inverted epifluorescence microscope using a 40× oil-immersion lens and a MicroMAX CCD camera (Roper Scientific; Tucson, Ariz.). CFP (420DF20 excitation, 450DRLP dichroic, 475DF40 emission) and Alexa568 (560DF20 excitation, 585DRLP dichroic, 605DF30 emission) images were collected and analyzed using OpenLab software (Improvision; Lexington, Mass.). Fluorescence images were background-corrected. […] Images were scaled to 16 bits and analyzed in Northern Eclipse (Empix Imaging; Ontario, Canada) with user-written software. […] Results were then calculated in terms of clusters per micrometer of dendrite. For assessment of pre-synaptic terminals, clusters were determined as before and average grey levels of clusters were compared between transfected dendrites and untransfected dendrites within the same field of view. […] “n” represents the number of transfected neurons for which clusters were measured. […]

[2] = Electrospray ionization mass spectrometry: biotin molecules bound per avidin tetramer; assay type: binding; details: spectra with or without biotin
Description: Biospin columns (Bio-Rad) are equilibrated by spinning 5 times in 500 μL of 15 mM ammonium acetate pH 7.8 at 1000 g for 2 min. Then 30-50 μL of 30 μM protein in PBS is buffer-exchanged into 15 mM ammonium acetate pH 7.8 using the pre-equilibrated Biospin columns by spinning for 20 s at 1000 g. To ensure that PBS is completely removed, the flow-through is again buffer-exchanged with a second pre-equilibrated column for 20 s. This procedure also removes free biotin when the starting 30 μM avidin forms are incubated with 200 μM biotin. Less than 2 min before introducing into the mass spectrometer, the buffer-exchanged samples are diluted with a solution of 1:1 15 mM ammonium acetate pH 7.8 and 78% acetonitrile, 0.01% trifluoroacetic acid.
An Advion nanospray robot (Advion BioSystems, Ithica, N.Y.) with a back-pressure of 0.45 Psi introduces the samples into the mass spectrometer, an 8.5 Tesla custom-built Electrospray Ionisation-Fourier Transform Mass Spectrometer. To visualize the non-covalent tetramers and non-covalent biotin binding in the high m/z range, the following settings are used: Chirp rate=750 Hz, Amplitude=0.5 V p-p, Tube lens=200 V, Capillary heater 2 V, Quad filter=−20 V, Skimmer=0 V, Capillary offset=34 V, X-fer=−110 V, Leak gas=4.2×10^−5 Torr. The capillary heater is kept low and the Quad filter and Skimmer are kept either high or off to prevent subunit dissociation. The transfer is set to this low value of −110 V in order to visualize the high m/z region.
The masses are calculated manually by first determining the charge state. The final mass is determined by multiplying the observed m/z by the charge and subtracting the mass corresponding to the addition of protons to give that charge. This calculation is repeated for each charge state and the mean and standard deviation reported. The spectra are calibrated with tetrameric avidin, after its monomer mass is determined under denaturing conditions. […]

Substance: D4: Streptavidin tetramer with 4 dead subunits (D: N23A, S27D, S45A, SEQ ID NO:3) [Tetramer D4]
- Alexa staining of biotinylated AP-CFP-TM [1]: no detectable staining
- biotin binding per avidin tetramer by mass spectrometry (in words) [2]: No biotin binding

Substance: A1D3: Monovalent streptavidin tetramer: one His6-tagged wild-type (A) subunit and three dead (D) subunits [Tetramer A1D3]
- Alexa staining of biotinylated AP-CFP-TM [1]: detected equally well
- biotin binding per avidin tetramer by mass spectrometry (in words) [2]: single biotin
